B1: pep56 (peptide)
peptide: DPAFGANSL
B2: GST-preS1 truncated protein preS1-p2 (residues 25-90) (domain or fragment)
chain: FPDHQLDPAFGANSNNPDWDFNPNKDHWPEANQVGAGAFGPGFTPPHGGLLGWSPQAQGILTTLPA
B3: pep59 (peptide)
peptide: QGIMQTVPAN
B4: GST-preS1 truncated protein preS1-p3 (residues 66-119) (domain or fragment)
chain: GFTPPHGGLLGWSPQAQGILTTLPAAPPPASTNRQSGRQPTPISPPLRDSHPQA

Assays:
[1] = biological target: T1, purified recombinant GRP78 protein (GRP78-His) (human, UniProt P11021 19-654, NT-647 fluorescent label (in the MST only)); assay: ITC
T1 sequence (P11021 19-654): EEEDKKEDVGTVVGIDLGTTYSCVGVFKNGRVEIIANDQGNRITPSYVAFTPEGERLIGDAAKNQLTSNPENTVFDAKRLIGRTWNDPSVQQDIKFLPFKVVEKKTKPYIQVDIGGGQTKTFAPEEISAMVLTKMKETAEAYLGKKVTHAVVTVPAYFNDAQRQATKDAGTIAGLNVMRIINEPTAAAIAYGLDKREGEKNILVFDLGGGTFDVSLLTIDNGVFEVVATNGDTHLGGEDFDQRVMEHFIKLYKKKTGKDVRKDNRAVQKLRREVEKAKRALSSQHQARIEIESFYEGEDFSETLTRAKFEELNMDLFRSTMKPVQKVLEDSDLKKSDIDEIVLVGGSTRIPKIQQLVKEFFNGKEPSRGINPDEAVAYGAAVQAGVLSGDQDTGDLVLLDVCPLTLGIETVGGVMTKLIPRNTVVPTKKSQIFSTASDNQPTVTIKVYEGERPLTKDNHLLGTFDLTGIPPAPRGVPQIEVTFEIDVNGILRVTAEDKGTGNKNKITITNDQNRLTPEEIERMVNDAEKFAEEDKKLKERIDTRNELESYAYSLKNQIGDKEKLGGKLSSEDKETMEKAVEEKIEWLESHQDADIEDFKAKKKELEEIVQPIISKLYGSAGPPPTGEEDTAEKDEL

[2] = biological target: T1, purified recombinant GRP78 protein …; assay: MST

Binder | Kd [1] [nM] | Kd [2] [nM]
B1 | 6.59 | –
B2 | – | 1200
B3 | 10.6 | –
B4 | – | 431

— article doi:10.1101/2021.12.08.471876 (bioRxiv, 2021)
